From article PMC4385471 (Molecular cell, 2015)

B1: MBP-GGA1(76-215) (domain or fragment, UniProt Q9UJY5 76-215, looked up)
chain: SCGKRFHDEVGKFRFLNELIKVVSPKYLGSRTSEKVKNKILELLYSWTVGLPEEVKIAEAYQMLKKQGIVKSDPKLPDDTTFPLPPPRPKNVIFEDEEKSKMLARLLKSSHPEDLRAANKLIKEMVQEDQKRMEKISKRV
B2: GST-ARF6Δ13 (domain or fragment, UniProt P62330 14-175, looked up)
chain: MRILMLGLDAAGKTTILYKLKLGQSVTTIPTVGFNVETVTYKNVKFNVWDVGGQDKIRPLWRHYYTGTQGLIFVVDCADRDRIDEARQELHRIINDREMRDAIILIFANKQDLPDAMKPHEIQEKLGLTRIRDRNWYVQPSCATSGDGLYEGLTWLTSNYKS
B3: Glutathione S-transferase (GST) tagged ARF1ΔN17 (domain or fragment)
chain: not shown
B4: GST-ARF5Δ17 (domain or fragment)
chain: not shown

How the values were obtained:
[1] = biological target: B3; assay: homologous competition assay
[2] = biological target: T1, Maltose Binding Protein (MBP) tagged IpaJΔ50 (Shigella flexneri, UniProt Q54150 51-259); assay: pull-down
T1 sequence: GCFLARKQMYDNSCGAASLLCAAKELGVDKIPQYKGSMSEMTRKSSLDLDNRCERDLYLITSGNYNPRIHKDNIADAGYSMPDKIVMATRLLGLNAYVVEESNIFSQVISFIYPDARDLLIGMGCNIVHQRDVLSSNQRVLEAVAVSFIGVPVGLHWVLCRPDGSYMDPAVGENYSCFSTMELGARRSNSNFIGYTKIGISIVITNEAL

[3] = biological target: T1, Maltose Binding Protein (MBP) tagged …; assay: homologous competition assay

Binder	binding result [2]	further results
B1		Kd [1]: 1810 nM
B2	binds	
B3		Kd [3]: 280 nM
B4	binds	
